Reference: US20200057058A1 (MIT, published 2020)

Assays:
[1] = molecular target: monomeric streptavidin variant mSA2; experiment: fluorescent binding curves, labeled mSA2 in 50% urine or 50% blood serum, 4 h
streptavidin [2] = molecular target: T1, streptavidin (UniProt P22629 37-163, limits assumed); experiment: apparent Kd (Kd,app); fluorescent binding curve, labeled SA in PBS, 8 h exposure; quadratic fit
T1 construct: It was used without a stated label in the sandwich assays; also called SA

streptavidin [3] = molecular target: T1, streptavidin; experiment: fluorescent binding curve, labeled SA in 50% blood serum, 4 h; quadratic fit
streptavidin [4] = molecular target: T1, streptavidin; experiment: fluorescent binding assay, labeled SA in 50% urine on thin film, 4 h exposure
[5] = molecular target: monomeric streptavidin variant mSA2; experiment: fluorescent binding curve, labeled mSA2 in 50% blood serum, 4 h; quadratic fit
streptavidin [6] = molecular target: T1, streptavidin; experiment: fluorescent binding curve, labeled SA in 50% urine, 4 h; quadratic fit
streptavidin [7] = molecular target: T1, streptavidin; experiment: apparent Kd (Kd,app); fluorescent binding curve, labeled SA in PBS, 4 h exposure; quadratic fit
streptavidin [8] = molecular target: T1, streptavidin; experiment: fluorescent binding curve, labeled SA in 50% blood serum, 4 h
Procedure: (§1) The binding function of rcSso7d.SA oligomer-PNIPAM thin films was measured using fluorescently-labeled monomeric streptavidin (mSA2) and fluorescently-labeled streptavidin (SA). Details for the expression, purification, and fluorescent labeling of mSA2 are provided below. Samples were prepared by serial dilution of SA or mSA2 in PBS (pH 7.4), human urine (diluted to 50% v/v in PBS, pH 7.4), or blood serum (obtained as the supernatant by centrifuging whole blood at 1500×g for 10 minutes, then diluted to 50% v/v in PBS, pH 7.4). 0.5 μL drops of solutions containing serially diluted fluorescent mSA2 and fluorescent SA samples in PBS (pH 7.4) were gently applied to the surface of each bioconjugate thin film. […] Fluorescence microscopy images were acquired at 4× magnification using a Cy5 filter set and exposure time of 5000 ms on an Olympus IX-81 inverted fluorescence microscope with an AxioCam HRC CCD camera. Fluorescent intensity was calculated using ImageJ software⁶⁷ by determining the average fluorescent signal in a rectangular area of the fluorescent image free of defects and occupying no less than half of the full sample application area.
(§2) To evaluate how the apparent size-based diffusion properties translated to biosensing capabilities, binding curves were measured using SA and mSA2 solutions in buffer. […]

streptavidin [9] = molecular target: T1, streptavidin; experiment: sandwich assay, SA in PBS, detection with biotin-HRP and TMB, absorbance at 450 nm
Procedure: (§3) Each well was submerged in 1 mL of 1% BSA in Milli-Q water, and the 12-well plate was incubated at 37° C. for 30 minutes. The wells were rinsed twice by adding 2 mL of Milli-Q water and gently shaking the well plate at 70 rpm for 5 minutes. 1 mL of streptavidin diluted in PBS, urine, or blood serum (prepared as described in the Fluorescent Assays section) containing 0.1% BSA was then added to each well, and the well plate was shaken at 70 rpm for 4 hours at room temperature. Wells were rinsed twice with 2 mL of Milli-Q water then twice with 2 mL of 0.1% BSA in Milli-Q water by shaking at 70 rpm for 5 minutes. After rinsing, wells were submerged in 1 mL of 200 ng/mL biotin-HRP in Milli-Q water containing 0.1% BSA, and the well plate was shaken at 70 rpm for 1 hour at room temperature. Wells were then rinsed with water and 0.1% BSA as described previously. 1 mL of solution from a Pierce TMB substrate kit (Thermo Fisher Scientific) was added to each well, and the well plate was shaken vigorously at 125 rpm for 15 minutes at room temperature. 1 mL of 2M H2SO4 was added to each well, and the absorbance at 450 nm was read using a Tecan Infinite M200 PRO plate reader.
The general procedure for this proof-of-concept experiment is diagrammed in FIG. 28. […] Bound SA was detected colorimetrically through the HRP-mediated oxidation of 3,3′,5,5′-tetramethylbenzidine (TMB). […]

BSA = molecular target: T2, BSA (bovine, UniProt P02769); experiment: fluorescence of Alexa Fluor 488-labeled BSA retained in a 144 nm 3xSP77.6k thin film after rinsing with water for 0-30 s
T2 construct: full protein, fluorescently labeled; non-specific retention control; also called BSA labeled with Alexa Fluor 488

[10] = molecular target: monomeric streptavidin variant mSA2; experiment: fluorescent binding assay, labeled mSA2 in 50% urine on thin film, 4 h exposure
Procedure: as §1, with “film. Films were incubated in a sealed chamber saturated with water vapor at room temperature to prevent to prevent drying of the applied fluorescent samples.” for “film.”
(§4) To evaluate how the apparent size-based diffusion properties translated to biosensing capabilities, binding curves were measured using SA and mSA2 solutions in buffer. Binding curves were fit with a quadratic model that is a function of three parameters: the average MFI per binding event a, the total concentration of binding sites [P]T, and the apparent dissociation constant K_{d,app} describing the binding equilibrium between analyte and binding sites within the thin film.

streptavidin [11] = molecular target: T1, streptavidin; experiment: fluorescent binding curve, labeled SA in PBS, 4 h exposure; quadratic fit
streptavidin [12] = molecular target: T1, streptavidin; experiment: sandwich assay: SA in 50% urine, biotin-HRP/TMB detection
Procedure: as §3
(§5) The general procedure for this proof-of-concept experiment is diagrammed in FIG. 28. Films were first exposed to SA solutions and rinsed to remove unbound analyte. Taking advantage of the strong interaction between SA and biotin, thin films were then submerged in a solution of biotinylated horseradish peroxidase (biotin-HRP). Bound SA was detected colorimetrically through the HRP-mediated oxidation of 3,3′,5,5′-tetramethylbenzidine (TMB). Attempts to perform this assay using mSA2 as the analyte were unsuccessful, even when run on an rcSso7d.SA monolayer.

[13] = molecular target: monomeric streptavidin variant mSA2; experiment: fluorescent binding assay, labeled mSA2 in 50% blood serum on thin film, 4 h exposure
Procedure: as §1, with “film. Films were incubated in a sealed chamber saturated with water vapor at room temperature to prevent to prevent drying of the applied fluorescent samples.” for “film.”
as §4

streptavidin [14] = molecular target: T1, streptavidin; experiment: sandwich assay: SA in 50% blood serum, biotin-HRP/TMB detection
Procedure: as §3, §5

streptavidin [15] = molecular target: T1, streptavidin; experiment: sandwich assay, SA in 50% blood serum, detection with biotin-HRP and TMB
Procedure: as §3, §5

[16] = molecular target: monomeric streptavidin variant mSA2; experiment: apparent Kd (Kd,app); fluorescent binding curve, labeled mSA2 in 50% blood serum, 4 h; quadratic fit
streptavidin [17] = molecular target: T1, streptavidin; experiment: apparent Kd (Kd,app); fluorescent binding curve, labeled SA in 50% blood serum, 4 h; quadratic fit
streptavidin [18] = molecular target: T1, streptavidin; experiment: apparent Kd (Kd,app); fluorescent binding curve, labeled SA in PBS, 0.5 h exposure; quadratic fit
[19] = molecular target: monomeric streptavidin variant mSA2; experiment: apparent Kd (Kd,app); fluorescent binding curve, labeled mSA2 in 50% urine, 4 h; quadratic fit
streptavidin [20] = molecular target: T1, streptavidin; experiment: apparent Kd (Kd,app); fluorescent binding curve, labeled SA in 50% urine, 4 h; quadratic fit
streptavidin [21] = molecular target: T1, streptavidin; experiment: fluorescent binding curve fits, labeled SA in PBS, 30 min exposure
Procedure: as §1, §2

streptavidin [22] = molecular target: T1, streptavidin; experiment: fluorescent binding assay, labeled SA in 50% blood serum on thin film, 4 h exposure
[23] = molecular target: monomeric streptavidin variant mSA2; experiment: fluorescent binding curve, labeled mSA2 in 50% urine, 4 h; quadratic fit
[24] = molecular target: monomeric streptavidin variant mSA2; experiment: fluorescent binding curve, labeled mSA2 in PBS, 4 h exposure; quadratic fit
Procedure: as §1, with “film. Films were incubated in a sealed chamber saturated with water vapor at room temperature to prevent to prevent drying of the applied fluorescent samples.” for “film.”
as §4

[25] = molecular target: monomeric streptavidin variant mSA2; experiment: apparent Kd (Kd,app); fluorescent binding curve, labeled mSA2 in PBS, 4 h exposure; quadratic fit
Procedure: as §1, with “film. Films were incubated in a sealed chamber saturated with water vapor at room temperature to prevent to prevent drying of the applied fluorescent samples.” for “film.”
as §4

[26] = molecular target: monomeric streptavidin variant mSA2; experiment: fluorescent binding curve fits, labeled mSA2 in PBS
Procedure: The binding function of rcSso7d.SA oligomer-PNIPAM thin films was measured using fluorescently-labeled monomeric streptavidin (mSA2) and fluorescently-labeled streptavidin (SA). Details for the expression, purification, and fluorescent labeling of mSA2 are provided below. Samples were prepared by serial dilution of SA or mSA2 in PBS (pH 7.4), human urine (diluted to 50% v/v in PBS, pH 7.4), or blood serum (obtained as the supernatant by centrifuging whole blood at 1500×g for 10 minutes, then diluted to 50% v/v in PBS, pH 7.4). […] After 1 hour, films were thoroughly rinsed with water for 10 seconds (a time determined to be sufficient to remove unbound molecules from the film, see FIG. 33, dried under filtered airflow, and immediately analyzed for fluorescent signal. Fluorescence microscopy images were acquired at 4× magnification using a Cy5 filter set and exposure time of 5000 ms on an Olympus IX-81 inverted fluorescence microscope with an AxioCam HRC CCD camera. Fluorescent intensity was calculated using ImageJ software⁶⁷ by determining the average fluorescent signal in a rectangular area of the fluorescent image free of defects and occupying no less than half of the full sample application area.
as §2

[27] = molecular target: monomeric streptavidin variant mSA2; experiment: fluorescent binding curve, labeled mSA2 in PBS, 4 h exposure
Procedure: as §1, §2

[28] = molecular target: monomeric streptavidin variant mSA2; experiment: apparent Kd (Kd,app); fluorescent binding curve, labeled mSA2 in PBS, 0.5 h exposure; quadratic fit
[29] = molecular target: monomeric streptavidin variant mSA2; experiment: apparent Kd (Kd,app); fluorescent binding curve, labeled mSA2 in PBS, 8 h exposure; quadratic fit
Procedure: as §1, §2

T1 sequence (P22629 37-163 limits assumed): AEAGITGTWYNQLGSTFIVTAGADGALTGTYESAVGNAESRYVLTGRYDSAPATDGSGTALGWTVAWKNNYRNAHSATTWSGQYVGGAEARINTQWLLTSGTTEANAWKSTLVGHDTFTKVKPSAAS
T2 sequence (P02769 25-607 limits assumed): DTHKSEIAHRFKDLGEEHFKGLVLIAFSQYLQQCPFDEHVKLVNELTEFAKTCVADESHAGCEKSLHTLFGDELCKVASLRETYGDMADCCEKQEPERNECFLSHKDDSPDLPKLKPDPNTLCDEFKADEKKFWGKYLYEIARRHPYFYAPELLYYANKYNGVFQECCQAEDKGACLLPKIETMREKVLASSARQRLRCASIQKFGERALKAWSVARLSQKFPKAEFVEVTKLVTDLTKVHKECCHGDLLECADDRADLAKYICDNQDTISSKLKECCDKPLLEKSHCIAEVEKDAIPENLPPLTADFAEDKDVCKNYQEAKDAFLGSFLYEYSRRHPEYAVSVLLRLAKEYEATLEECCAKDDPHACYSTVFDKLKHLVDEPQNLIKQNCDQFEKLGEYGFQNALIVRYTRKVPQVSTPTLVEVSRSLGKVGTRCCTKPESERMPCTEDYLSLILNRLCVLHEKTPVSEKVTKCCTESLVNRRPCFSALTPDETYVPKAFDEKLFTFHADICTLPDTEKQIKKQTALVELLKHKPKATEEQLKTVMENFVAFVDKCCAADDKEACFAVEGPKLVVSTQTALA

B1: 3xSP77.6k thin film (3x rcSso7d.SA-PNIPAM conjugate, PNIPAM Mn 77.6 kDa) (designed binder)
chain: MGSSHHHHHHSSGLVPRGSHMCATVKFTYQGEEKQVDISKIKIVARDGQYIDFKYDEGGGAYGYGWVSEKDAPKELLQMLEKQGGGGSGGGGSMATVKFTYQGEEKQVDISKIKIVARDGQYIDFKYDEGGGAYGYGWVSEKDAPKELLQMLEKQGGGGSGGGGSMATVKFTYQGEEKQVDISKIKIVARDGQYIDFKYDEGGGAYGYGWVSEKDAPKELLQMLEKQGG
modifications: maleimide end-functionalized PNIPAM (Mn 77.6 kDa) on the N-terminal Cys; film lightly crosslinked with glutaraldehyde
- LOD relative to rcSso7d.SA monolayer [1]: 2 orders of magnitude lower
- Kd (streptavidin [2]): 15 µM
- [P]T (total concentration of binding sites) (streptavidin [3]): 0.6 nM
- Limit of Detection (streptavidin [4]): 800 nM
- [P]T (total concentration of binding sites) [5]: 4.5 nM
- [P]T (total concentration of binding sites) (streptavidin [6]): 0.3 nM
- Kd (streptavidin [7]): 17 µM
- reduction in LOD relative to rcSso7d.SA monolayer (streptavidin [8]): ~2 fold
- LOD relative to rcSso7d.SA monolayer (streptavidin [9]): ~2 fold
- binding result (BSA): no binding (tested: 10 µM)
- Limit of Detection [10]: 14 nM
- [P]T (total concentration of binding sites) (streptavidin [11]): 0.41 nM
- LOD (streptavidin [12]): 33 nM
- Limit of Detection [13]: 56 nM
- LOD (streptavidin [14]): 85 nM
- LOD relative to rcSso7d.SA monolayer (streptavidin [15]): 2 fold
- Kd [16]: 35 µM
- Kd (streptavidin [17]): 40 µM
- Kd (streptavidin [18]): 80 µM
- Kd [19]: 31 µM
- Kd (streptavidin [20]): 50 µM
- binding sites accessed relative to the 3×SP9.6k film (streptavidin [21]): ~4 fold
- Limit of Detection (streptavidin [22]): 420 nM
- [P]T (total concentration of binding sites) [23]: 15 nM

B2: 3xSP56.1k thin film (3x rcSso7d.SA-PNIPAM conjugate, PNIPAM Mn 56.1 kDa) (designed binder)
chain: MGSSHHHHHHSSGLVPRGSHMCATVKFTYQGEEKQVDISKIKIVARDGQYIDFKYDEGGGAYGYGWVSEKDAPKELLQMLEKQGGGGSGGGGSMATVKFTYQGEEKQVDISKIKIVARDGQYIDFKYDEGGGAYGYGWVSEKDAPKELLQMLEKQGGGGSGGGGSMATVKFTYQGEEKQVDISKIKIVARDGQYIDFKYDEGGGAYGYGWVSEKDAPKELLQMLEKQGG
modifications: maleimide end-functionalized PNIPAM (Mn 56.1 kDa) on the N-terminal Cys; film lightly crosslinked with glutaraldehyde
- [P]T (total concentration of binding sites) [24]: 3.2 nM
- Kd [25]: 16 µM
- accessible binding sites relative to the 3×SP9.6k film [26]: > 4 fold
- reduction in LOD relative to rcSso7d.SA monolayer [27]: ~4 fold
- Kd [28]: 33 µM
- Kd [29]: 13 µM
